Laboratory results published in publication PMC11559089.

How the values were obtained:
[1] = molecular target: full-length HIV-1 integrase Y99H/A128T (HIV-1); experiment: SEC; Superdex 200 10/300 GL; 20 µM IN; 20 mM HEPES pH 7.5, 1 M NaCl, 10% glycerol, 5 mM BME; 0.3 mL/min; incubated 1 h at 4°C; size by protein standards; no inhibitor
[2] = molecular target: full-length WT HIV-1 integrase (IN) (HIV-1); experiment: as above

Row | Substance | stoichiometry N [1] | stoichiometry N [2]
1 | full-length HIV-1 integrase Y99H/A128T (enzyme) | 4 | –
2 | full-length WT HIV-1 integrase (IN) (enzyme) | – | 4
